In patent US10669313B2, “Multitarget-directed bio-inorganic hybrid structure” (INDUSTRY-ACADEMIC COOPERATION FOUNDATION, YONSEI UNIVERSITY, priority 2016, dated 2020):

Assays:
[1] = test system: cyc-ARM peptide on SWCNT (homo-ARM-SPCH) (HIV-1 (Rev ARM, synthetic)); assay: competition; settings: hybrid concentration for complete exchange of 6 uM Rev from 100 nM RRE by EMSA; stated about 10,000 times stronger RRE binding than Rev
[2] = test system: Rev-mediated RRE export (RRE: Rev: Crm1 interactions); assay: Nucleocytoplasmic export assay (CAT assay) based on plasmid pDM128 in HeLa cells; format: cell-based, HIV-1; settings: HeLa cells co-transfected with pDM128 and pSV2-Rev
Protocol: Lastly, multitarget-binding and inhibitory capabilities of hetero-SPCHs were examined. To evaluate the inhibition of Rev-mediated RRE export, a nucleocytoplasmic export assay based on plasmid pDM128 expressing RRE (see FIG. 23) was performed.
Referring to FIG. 24, as shown in a chloramphenicol acetyltransferase (CAT) assay (lane 3), co-transfection of pDM128 with pSV2-Rev (Rev-expressing plasmid) in HeLa cells enables an effective nucleocytoplasmic export of RRE RNA. In contrast, negligible CAT activity was observed when the cells were co-transfected with pBluescript KS(+) (negative control plasmid) (lane 2).
In addition, to confirm whether nucleocytoplasmic export mediated by RRE: Rev: Crm1 interactions could be inhibited by peptide-CNT hybrids, the cells were treated with hetero-(A&N)-SPCHs.
HeLa cells were incubated under 5% CO2 at 37° C. in DMEM supplemented with 10% FBS and 1% pen/strep. 4×10^4 of the incubated cells were distributed into a 48-well plate, and then incubated under 5% CO2 at 37° C. overnight. Subsequently, the resulting cells were washed with DPBS, and then a plasmid (total 250 ng; pDM128, pBluescript II KS (+), pSV2-Rev) complexed with 0.7 μL of a jetPEI DNA transfection reagent was added to each well. […]
The samples were normalized with the concentrations of proteins measured by a BCA assay (BCA protein assay kit; Pierce, USA). […]

Compound	binding [1]	concentration required to completely inhibit the RRE export [2]
GGGCGAAUUGGAGCUCGCUAUGUUCCUUGGGUUCUUGGGAGCAGCAGGAAGCACUAUGGGCGCAGUGUCAUUGACGCUGACGGUACAGGCCAGACAAUUAUUGUCUGGUAUAGUGCAACAGCAGAACAAUUUGCUGAGGGCUAUUGAGGCGCAACAACAUCUGUUGCAACUCACAGUCUGGGGCAUCAAGCAGCUCCAGGCAAGAGUCCUGGCUGUGGAAAGAUACCUAAGGGAUCAACAGCUCCUAGGGAUG [full-length RRE RNA transcript (253 nt)]	600 pM	–
CCC(=C/[C@H](C)C/C=C/C(C)=C/[C@@H](C)C(=O)[C@@H](C)[C@H](O)[C@@H](C)C/C(C)=C/C(=O)O)/C=C/[C@@H]1OC(=O)C=C[C@@H]1C [LMB, leptomycin B]	–	100 nM
